Patent US20130123471A1

Assays:
[1] = biological target: anti-CEA humanized chimeric antibody; test: direct ELISA: chimeric antibody (100 ng/ml) on coated CEA, detected with goat-anti-mouse IgG Fc-HRP (background level)
[2] = biological target: human CEA antigen (human) (UniProt P06731); test: competitive inhibition ELISA on coated CEA, 80 ng human IgG1 against 2.5 ng parent mouse antibody
[3] = biological target: human CEA antigen (human) (UniProt P06731); test: direct ELISA on coated CEA, 100 ng/ml, goat-anti-human IgG Fc-HRP secondary (background level)
[4] = biological target: human CEA antigen (human) (UniProt P06731); test: ELISA, CEA coating, sample 100 ng/ml, goat-anti-human IgG Fc-HRP (background level)
[5] = biological target: human CEA antigen (human) (UniProt P06731); test: direct ELISA on coated CEA, 100 ng/ml, goat-anti-mouse IgG Fc-HRP secondary (background level; this secondary does not detect human Ig)

UniProt P06731, sequence (P06731 35-685 limits assumed): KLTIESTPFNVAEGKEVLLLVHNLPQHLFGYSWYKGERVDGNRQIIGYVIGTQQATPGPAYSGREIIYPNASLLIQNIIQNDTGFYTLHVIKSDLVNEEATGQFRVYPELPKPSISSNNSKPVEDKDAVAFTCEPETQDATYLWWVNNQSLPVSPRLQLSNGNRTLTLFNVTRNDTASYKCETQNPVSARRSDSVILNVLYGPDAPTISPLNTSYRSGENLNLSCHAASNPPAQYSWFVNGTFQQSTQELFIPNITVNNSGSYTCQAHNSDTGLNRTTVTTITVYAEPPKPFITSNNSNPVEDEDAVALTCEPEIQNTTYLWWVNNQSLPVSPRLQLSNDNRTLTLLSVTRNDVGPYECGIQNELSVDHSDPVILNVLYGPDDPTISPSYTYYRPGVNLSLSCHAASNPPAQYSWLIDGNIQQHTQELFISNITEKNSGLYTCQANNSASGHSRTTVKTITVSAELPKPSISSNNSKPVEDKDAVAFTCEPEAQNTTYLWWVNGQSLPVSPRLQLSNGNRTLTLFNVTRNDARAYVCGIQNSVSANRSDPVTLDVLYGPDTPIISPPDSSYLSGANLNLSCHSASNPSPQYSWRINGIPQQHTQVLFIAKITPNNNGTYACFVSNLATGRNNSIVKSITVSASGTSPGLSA
anti-CEA humanized chimeric antibody, sequence (VH, as listed by the source, chain 1 of 2): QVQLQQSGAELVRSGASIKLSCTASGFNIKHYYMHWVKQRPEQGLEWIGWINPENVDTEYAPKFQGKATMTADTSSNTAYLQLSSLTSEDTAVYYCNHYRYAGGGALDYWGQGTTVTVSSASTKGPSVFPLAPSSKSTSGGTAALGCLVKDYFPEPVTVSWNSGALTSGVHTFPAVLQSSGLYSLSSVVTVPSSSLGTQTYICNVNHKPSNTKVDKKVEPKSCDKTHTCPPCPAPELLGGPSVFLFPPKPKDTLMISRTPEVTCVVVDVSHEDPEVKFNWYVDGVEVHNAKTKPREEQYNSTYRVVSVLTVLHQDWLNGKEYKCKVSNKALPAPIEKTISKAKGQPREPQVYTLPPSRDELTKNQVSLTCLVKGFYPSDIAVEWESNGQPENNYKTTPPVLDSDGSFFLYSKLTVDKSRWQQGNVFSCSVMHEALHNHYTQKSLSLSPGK
anti-CEA humanized chimeric antibody, sequence (VL, as listed by the source, chain 2 of 2): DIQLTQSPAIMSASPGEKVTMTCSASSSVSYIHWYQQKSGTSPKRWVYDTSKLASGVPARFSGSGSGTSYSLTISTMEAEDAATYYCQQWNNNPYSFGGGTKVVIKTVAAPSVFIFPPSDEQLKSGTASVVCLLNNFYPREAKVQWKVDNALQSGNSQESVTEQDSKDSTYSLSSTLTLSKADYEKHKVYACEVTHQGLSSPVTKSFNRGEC

Row | OD490 [1] [OD490] | Inhibition rate (%) [2] [%] | OD490 [3] [OD490] | OD490 [4] [OD490] | OD490 [5] [OD490] | Substance
1 | 0.072 | – | – | – | – | goat-anti-mouse IgG Fc fragment-HRP (antibody)
2 | – | -12.8 | 0.079 | 0.072 | 0.077 | irrelevant antibody human IgG1
